# Article PMC9097460, “The molecular basis of spinocerebellar ataxia type 48 caused by a de novo mutation in the ubiquitin ligase CHIP” (The Journal of Biological Chemistry, 2022)
# B1: CHIP A52G point mutant, recombinant (enzyme, human, UniProt Q9UNE7 1-303, looked up)
# chain: MKGKEEKEGGARLGAGGGSPEKSPSAQELKEQGNRLFVGRKYPEAAACYGRGITRNPLVAVYYTNRALCYLKMQQHEQALADCRRALELDGQSVKAHFFLGQCQLEMESYDEAIANLQRAYSLAKEQRLNFGDDIPSALRIAKKKRWNSIEERRIHQESELHSYLSRLIAAERERELEECQRNHEGDEDDSHVRAQQACIEAKHDKYMADMDELFSQVDEKRKKRDIPDYLCGKISFELMREPCITPSGITYDRKDIEEHLQRVGHFDPVTRSPLTQEQLIPNLAMKEVIDAFISENGWVEDY
# notes: CHIP (STUB1 product) with the patient's de novo A52G mutation (c.155C > G), introduced by QuikChange into the pGEX6p-1 construct; Mutation found in a patient with SCA48; also called A52G mutant; source: E. coli, purified
# Target: the molecule itself
# Experiment: SEC + other: mass photometry; recombinant CHIP run on size-exclusion chromatography, fractions analysed by mass photometry at 30 nM in 20 mM Hepes pH 8, 200 mM NaCl, 1 mM DTT
protein,measurement,value
B1,binding result,binds
